From publication PMC3900260
Like-named read-outs stand apart in the source and are kept apart here.

apurinic/apyrimidinic endonuclease 1 (APE1): K6R/K7R
no change: enzymatic_activity (acetylation at K6) | expression_or_secretion (acetylation at K6) | enzymatic_activity (acetylation at K7) | expression_or_secretion (acetylation at K7)
